Measured values reported in paper PMC6537384, “A GDF11/myostatin inhibitor, GDF11 propeptide-Fc, increases skeletal muscle mass and improves muscle strength in dystrophic mdx mice” (Skeletal Muscle, 2019).

What was measured:
[1] = target: T1, recombinant MSTN (UniProt O14793 267-375); assay: cell-based or functional assay
T1 sequence (looked up): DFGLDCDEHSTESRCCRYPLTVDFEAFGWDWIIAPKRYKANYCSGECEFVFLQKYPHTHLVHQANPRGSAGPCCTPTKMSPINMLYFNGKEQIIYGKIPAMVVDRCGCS

[2] = target: T2, recombinant GDF11 (UniProt O95390 299-407); assay: cell-based or functional assay
T2 sequence (looked up): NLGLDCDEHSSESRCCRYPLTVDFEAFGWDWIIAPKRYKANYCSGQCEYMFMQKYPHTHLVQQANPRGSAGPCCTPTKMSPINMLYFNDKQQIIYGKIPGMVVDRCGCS

average myotube diameter relative to control, C2C12 myotubes expressing GDF11PRO-Fc (AAV6) treated with 100 ng/ml rMSTN (rMSTN alone: − 35%) [1]: -5.3% | differentiation index relative to untreated control, C2C12 myotubes expressing GDF11PRO-Fc (AAV6) treated with 100 ng/ml rMSTN (rMSTN alone: − 14%) [1]: -3% | average myotube diameter relative to control, C2C12 myotubes expressing GDF11PRO-Fc (AAV6) treated with 100 ng/ml rGDF11 (rGDF11 alone: − 39%) [2]: -1.8% | differentiation index relative to untreated control, C2C12 myotubes expressing GDF11PRO-Fc (AAV6) treated with 100 ng/ml rGDF11 (rGDF11 alone: − 15%) [2]: -1.9%
B1: GDF11 propeptide-Fc (Fc fusion, human, UniProt O95390 25-298, looked up)
chain: AEGPAAAAAAAAAAAAAGVGGERSSRPAPSVAPEPDGCPVCVWRQHSRELRLESIKSQILSKLRLKEAPNISREVVKQLLPKAPPLQQILDLHDFQGDALQPEDFLEEDEYHATTETVISMAQETDPAVQTDGSPLCCHFHFSPKVMFTKVLKAQLWVYLRPVPRPATVYLQILRLKPLTGEGTAGGGGGGRRHIRIRSLKIELHSRSGHWQSIDFKQVLHSWFRQPQSNWGIEINAFDPSGTDLAVTSLGPGAEGLHPFMELRVLENTKRSRR
